According to WO2013087874A1 (dated 2013):

B1: VHH L-14 (#2622, SEQ ID NO:2) (VHH)
VHH: DVQLQASGGGLVPAGGSLRLSCAASGHSFSSLDMAWFRQAPGREREFVAQISWSGSHTYYQDAVKGRFTISRDSAKNTGYLQMTNLKPEDTAVYYCAATYRPNTFTPAEYDYWGQGTQVTVSA
B2: VHH L+18a (#2173, SEQ ID NO:5) (VHH)
VHH: DVQLQASGGGLVQAGGSMRLSCAASGFTFDEFAIGWFRQAPGKEREAVSCIRSSDGSTWYADSVKGRFTISSDNAKNTVTLRMNSLKPEDTADYTCAALGSGYGCSLFTTTVGMDYWGKGTLVTVSS
B3: VHH S-20a (#2352, SEQ ID NO:11) (VHH)
VHH: DVQLQASGGGLVQAGDSLRLSCSASGLTFSSYAMGWFRQAPGKEREFVAAISWANGGSTVYADPVKGRFTISRDNAKNTVYLQMNSLKPEDTAVYSCAAADQRVGYIEYYSGSSGKEYDYWGQGTQVTVSS
B4: VHH L-15a (#2169, SEQ ID NO:3) (VHH)
VHH: DVQLQESGGGLVQAGGSLRLSCAASRSLRSIAVMGWFRQAPGKQREYVARITSGGYTDYADSVKGRFTIFDDSANNTVYLQMTSLKPEDTAVYHCAAGGFTEAYSGTYYPDSWGQGTQVTVSS

What follows are binders tested against T1, ToxA-Holotoxin of Clostridium difficile (Clostridium difficile, UniProt P16154 1-2710) (assay: ELISA, monovalent VHH on coated antigen, anti-myc detection).
T1 construct: also called Toxin A
T1 sequence (P16154 whole entry): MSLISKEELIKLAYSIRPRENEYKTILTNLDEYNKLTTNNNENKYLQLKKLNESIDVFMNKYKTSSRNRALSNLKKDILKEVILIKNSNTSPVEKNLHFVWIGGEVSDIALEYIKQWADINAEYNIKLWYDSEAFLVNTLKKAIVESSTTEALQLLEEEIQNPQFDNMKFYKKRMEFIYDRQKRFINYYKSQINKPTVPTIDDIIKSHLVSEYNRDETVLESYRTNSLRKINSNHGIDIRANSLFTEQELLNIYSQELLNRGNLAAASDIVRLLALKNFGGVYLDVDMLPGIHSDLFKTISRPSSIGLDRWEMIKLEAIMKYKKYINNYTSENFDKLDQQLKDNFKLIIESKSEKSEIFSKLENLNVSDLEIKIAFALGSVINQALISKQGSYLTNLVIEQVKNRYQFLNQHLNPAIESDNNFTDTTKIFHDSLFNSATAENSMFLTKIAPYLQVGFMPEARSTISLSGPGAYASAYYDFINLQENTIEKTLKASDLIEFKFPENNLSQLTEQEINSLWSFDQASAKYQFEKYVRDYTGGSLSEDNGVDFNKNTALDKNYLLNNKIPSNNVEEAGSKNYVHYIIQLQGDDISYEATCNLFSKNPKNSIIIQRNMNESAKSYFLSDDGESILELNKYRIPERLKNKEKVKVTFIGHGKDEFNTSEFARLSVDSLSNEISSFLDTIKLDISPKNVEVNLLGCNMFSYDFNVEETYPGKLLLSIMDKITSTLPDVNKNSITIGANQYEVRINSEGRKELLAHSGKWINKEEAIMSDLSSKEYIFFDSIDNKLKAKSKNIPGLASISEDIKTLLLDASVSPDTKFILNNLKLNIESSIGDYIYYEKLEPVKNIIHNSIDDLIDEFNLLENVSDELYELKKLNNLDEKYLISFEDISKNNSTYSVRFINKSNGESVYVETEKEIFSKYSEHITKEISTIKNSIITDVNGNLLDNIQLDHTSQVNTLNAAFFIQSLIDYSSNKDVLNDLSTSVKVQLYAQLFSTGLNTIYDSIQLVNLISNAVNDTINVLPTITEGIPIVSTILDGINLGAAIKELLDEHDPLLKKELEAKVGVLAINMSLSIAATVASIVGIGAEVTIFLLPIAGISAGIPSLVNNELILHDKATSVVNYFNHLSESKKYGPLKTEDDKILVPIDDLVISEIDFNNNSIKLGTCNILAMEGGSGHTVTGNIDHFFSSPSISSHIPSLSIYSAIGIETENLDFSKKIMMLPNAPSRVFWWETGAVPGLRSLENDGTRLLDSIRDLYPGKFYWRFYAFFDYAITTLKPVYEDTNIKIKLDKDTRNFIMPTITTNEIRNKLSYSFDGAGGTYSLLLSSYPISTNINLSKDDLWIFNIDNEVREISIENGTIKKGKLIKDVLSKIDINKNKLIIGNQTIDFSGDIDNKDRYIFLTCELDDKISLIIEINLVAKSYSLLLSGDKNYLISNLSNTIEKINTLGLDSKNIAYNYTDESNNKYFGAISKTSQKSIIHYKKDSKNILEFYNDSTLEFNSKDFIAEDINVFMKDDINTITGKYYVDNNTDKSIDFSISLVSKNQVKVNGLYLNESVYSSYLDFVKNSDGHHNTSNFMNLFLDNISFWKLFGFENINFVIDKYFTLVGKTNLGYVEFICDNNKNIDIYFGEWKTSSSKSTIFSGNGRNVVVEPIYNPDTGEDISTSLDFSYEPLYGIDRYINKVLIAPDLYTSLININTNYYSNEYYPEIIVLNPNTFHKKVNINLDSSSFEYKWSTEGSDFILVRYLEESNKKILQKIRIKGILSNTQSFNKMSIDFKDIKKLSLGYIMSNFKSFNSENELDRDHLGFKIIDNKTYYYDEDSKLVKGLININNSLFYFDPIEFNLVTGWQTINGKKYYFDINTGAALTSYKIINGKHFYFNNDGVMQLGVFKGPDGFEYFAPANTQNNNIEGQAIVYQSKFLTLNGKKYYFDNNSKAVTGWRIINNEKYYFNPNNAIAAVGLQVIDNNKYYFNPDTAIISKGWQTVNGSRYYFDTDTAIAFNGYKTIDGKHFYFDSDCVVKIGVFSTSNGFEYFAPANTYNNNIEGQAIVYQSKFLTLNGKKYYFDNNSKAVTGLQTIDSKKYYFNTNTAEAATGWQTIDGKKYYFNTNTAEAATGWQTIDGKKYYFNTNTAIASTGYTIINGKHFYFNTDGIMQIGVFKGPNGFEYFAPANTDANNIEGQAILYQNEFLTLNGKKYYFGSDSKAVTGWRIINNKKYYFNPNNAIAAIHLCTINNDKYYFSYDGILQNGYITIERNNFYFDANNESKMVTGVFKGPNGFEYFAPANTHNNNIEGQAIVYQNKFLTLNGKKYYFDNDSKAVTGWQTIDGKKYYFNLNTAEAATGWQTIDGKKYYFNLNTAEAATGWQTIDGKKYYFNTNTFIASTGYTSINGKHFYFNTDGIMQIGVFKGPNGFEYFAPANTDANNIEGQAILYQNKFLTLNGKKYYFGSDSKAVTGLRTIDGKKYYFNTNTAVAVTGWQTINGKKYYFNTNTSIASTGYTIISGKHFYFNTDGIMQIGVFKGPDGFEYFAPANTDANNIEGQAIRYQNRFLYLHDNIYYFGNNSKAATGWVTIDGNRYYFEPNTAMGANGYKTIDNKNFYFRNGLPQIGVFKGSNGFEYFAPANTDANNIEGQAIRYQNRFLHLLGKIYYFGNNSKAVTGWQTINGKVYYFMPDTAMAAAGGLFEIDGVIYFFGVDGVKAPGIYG
B1: no binding (tested: 8-1000 ng VHH).
B2: no binding (tested: 8-1000 ng VHH).
B3: no binding (tested: 8-1000 ng VHH).
B4: no binding (tested: 8-1000 ng VHH).
